Reference: doi:10.1101/2023.11.22.568361 (bioRxiv, 2023)

Biological target: the molecule itself
Test: AUC

## MAGNGGDAALALLLLDRLNQLESKMSGKGQQQQGQTV [isolated LRS peptide (N:210–246)]
  binding result: binds
